We go through one variant from IntAct's records for PubMed 25535969.

The labels stand for the following.
B1: Lysine-specific demethylase 3A (Homo sapiens), Q9Y4C1 (parent)
chain: MVLTLGESWPVLVGRRFLSLSAADGSDGSHDSWDVERVAEWPWLSGTIRAVSHTDVTKKDLKVCVEFDGESWRKRRWIEVYSLLRRAFLVEHNLVLAERKSPEISERIVQWPAITYKPLLDKAGLGSITSVRFLGDQQRVFLSKDLLKPIQDVNSLRLSLTDNQIVSKEFQALIVKHLDESHLLKGDKNLVGSEVKIYSLDPSTQWFSATVINGNPASKTLQVNCEEIPALKIVDPSLIHVEVVHDNLVTCGNSARIGAVKRKSSENNGTLVSKQAKSCSEASPSMCPVQSVPTTVFKEILLGCTAATPPSKDPRQQSTPQAANSPPNLGAKIPQGCHKQSLPEEISSCLNTKSEALRTKPDVCKAGLLSKSSQIGTGDLKILTEPKGSCTQPKTNTDQENRLESVPQALTGLPKECLPTKASSKAELEIANPPELQKHLEHAPSPSDVSNAPEVKAGVNSDSPNNCSGKKVEPSALACRSQNLKESSVKVDNESCCSRSNNKIQNAPSRKSVLTDPAKLKKLQQSGEAFVQDDSCVNIVAQLPKCRECRLDSLRKDKEQQKDSPVFCRFFHFRRLQFNKHGVLRVEGFLTPNKYDNEAIGLWLPLTKNVVGIDLDTAKYILANIGDHFCQMVISEKEAMSTIEPHRQVAWKRAVKGVREMCDVCDTTIFNLHWVCPRCGFGVCVDCYRMKRKNCQQGAAYKTFSWLKCVKSQIHEPENLMPTQIIPGKALYDVGDIVHSVRAKWGIKANCPCSNRQFKLFSKPASKEDLKQTSLAGEKPTLGAVLQQNPSVLEPAAVGGEAASKPAGSMKPACPASTSPLNWLADLTSGNVNKENKEKQPTMPILKNEIKCLPPLPPLSKSSTVLHTFNSTILTPVSNNNSGFLRNLLNSSTGKTENGLKNTPKILDDIFASLVQNKTTSDLSKRPQGLTIKPSILGFDTPHYWLCDNRLLCLQDPNNKSNWNVFRECWKQGQPVMVSGVHHKLNSELWKPESFRKEFGEQEVDLVNCRTNEIITGATVGDFWDGFEDVPNRLKNEKEPMVLKLKDWPPGEDFRDMMPSRFDDLMANIPLPEYTRRDGKLNLASRLPNYFVRPDLGPKMYNAYGLITPEDRKYGTTNLHLDVSDAANVMVYVGIPKGQCEQEEEVLKTIQDGDSDELTIKRFIEGKEKPGALWHIYAAKDTEKIREFLKKVSEEQGQENPADHDPIHDQSWYLDRSLRKRLHQEYGVQGWAIVQFLGDVVFIPAGAPHQVHNLYSCIKVAEDFVSPEHVKHCFWLTQEFRYLSQTHTNHEDKLQVKNVIYHAVKDAVAMLKASESSFGKP

The variants in the assay derive from B1. Conditions: with STAT1, P42224-1.
STAT1, P42224-1, sequence (P42224 whole entry): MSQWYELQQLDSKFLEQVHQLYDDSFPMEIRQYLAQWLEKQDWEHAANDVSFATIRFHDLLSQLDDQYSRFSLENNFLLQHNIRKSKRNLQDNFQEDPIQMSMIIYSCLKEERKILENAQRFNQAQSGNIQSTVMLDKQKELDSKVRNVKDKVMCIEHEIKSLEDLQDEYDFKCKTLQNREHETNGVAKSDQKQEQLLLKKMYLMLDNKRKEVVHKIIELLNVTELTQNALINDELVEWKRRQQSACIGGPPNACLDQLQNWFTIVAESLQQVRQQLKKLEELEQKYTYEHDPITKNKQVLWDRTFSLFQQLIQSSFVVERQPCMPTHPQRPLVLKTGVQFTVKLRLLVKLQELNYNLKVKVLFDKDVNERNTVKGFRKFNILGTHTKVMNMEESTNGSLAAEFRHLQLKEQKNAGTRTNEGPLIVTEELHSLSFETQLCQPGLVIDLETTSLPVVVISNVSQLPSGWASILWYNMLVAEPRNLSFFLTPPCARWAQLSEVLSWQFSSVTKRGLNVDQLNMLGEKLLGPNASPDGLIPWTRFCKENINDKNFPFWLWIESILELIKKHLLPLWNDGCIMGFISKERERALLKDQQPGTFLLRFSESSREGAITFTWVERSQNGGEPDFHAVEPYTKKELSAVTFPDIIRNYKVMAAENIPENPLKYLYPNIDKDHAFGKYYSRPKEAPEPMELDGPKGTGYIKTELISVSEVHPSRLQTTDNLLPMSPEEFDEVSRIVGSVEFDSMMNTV
Take S264A: the “effect of a mutation on the interaction” value is on record as “disrupting interaction strength”.
